From US20240141039A1 (AGENUS, published 2024)

Columns and labels:
[1] = molecular target: T1, wild type full-length cynomolgus monkey TIGIT expressed on CHO cells (cynomolgus monkey, UniProt A0A7N9I9V4 89-312); assay: flow cytometry, blocking of human CD155-Fc-PE binding to CHO cells expressing cynomolgus TIGIT
T1 construct: whole, on cells; also called cynomolgus TIGIT-CHO cells

[2] = molecular target: T2, full-length ECD of human TIGIT (His-tagged) (human); assay: SPR Biacore T200, Protein A capture, 1:1 model, experiment #1
T2 construct: also called His-tagged human TIGIT; human TIGIT extracellular domain
T2 chain: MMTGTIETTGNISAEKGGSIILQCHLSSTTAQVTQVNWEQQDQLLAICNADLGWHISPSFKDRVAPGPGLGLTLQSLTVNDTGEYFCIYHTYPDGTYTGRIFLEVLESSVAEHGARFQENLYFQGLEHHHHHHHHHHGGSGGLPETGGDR
Protocol: Briefly, surface plasmon resonance experiments were performed using a Biacore T200 instrument, and the association rate (kₐ), dissociation rate (kd), and dissociation constant (KD) were calculated from each experiment using a 1:1 binding model with Biacore T200 Evaluation Software.
Multispecific molecules were captured using a 30-sec injection at a flow rate of 10 μl/min to reach about 1000 resonance units (RUs). […] The sensor chip was regenerated between cycles with two 30-sec injections of 10 mM glycine, pH 1.5. Sensorgrams were evaluated and fit to a simple Langmuir 1:1 interaction model using the global data analysis option of BIAevaluation 3.0 software. Data quality was verified by visually inspecting deviations and curve fitting, and by evaluating the parameters of Rₘₐₓ, Chi2, and Tc.

[3] = molecular target: T3, wild type full-length human TIGIT expressed on cells (human, UniProt Q495A1 22-244); assay: flow cytometry, blocking of human CD155-Fc-PE binding to CHO cells expressing human TIGIT
T3 construct: whole, on cells; also called human TIGIT-CHO; human TIGIT CHO cells
T3 sequence (looked up): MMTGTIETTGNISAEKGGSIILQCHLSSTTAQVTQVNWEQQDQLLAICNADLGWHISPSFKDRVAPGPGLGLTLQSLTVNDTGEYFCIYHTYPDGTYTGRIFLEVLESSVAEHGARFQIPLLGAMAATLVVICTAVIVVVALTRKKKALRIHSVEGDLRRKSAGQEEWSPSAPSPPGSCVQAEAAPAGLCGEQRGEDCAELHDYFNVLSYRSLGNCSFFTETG
Protocol: A 4× concentrated intermediate stock of each antibody was prepared in a microplate. Antibodies were serially diluted 1-to-4 in FACS buffer. […] Lastly, 25 μL of human TIGIT-CHO cells, prepared as described above, were added to each well. After a 30-minute incubation on ice, the cells were washed twice with cold FACS Buffer, and the cells were analyzed by flow cytometry (BD LSR Fortessa Flow Cytometer). The data were analyzed using the FlowJo software by sequentially gating on the FSC-A vs. SSC-A and SSC-H vs. SSC-A. Mean fluorescence intensity (MFI) values for PE were calculated, and the data were plotted by GraphPad Prism software and analyzed as described above.

[4] = molecular target: T4, full-length human FcγRIIIa variant V/V expressed on CHO cells (human, UniProt P08637 17-254); assay: flow cytometry, human FcγRIIIa (V/V) CHO cells, representative experiment
T4 construct: whole, on cells; also called human FcγRIIIa-CHO (variant V/V); human FcγRIIIa (V/V) CHO cells
Protocol: (§1) For the antibody binding assay, a frozen aliquot of human FcγRIIIa-CHO cells (variant V/V or variant F/F) was thawed at 37° C. and then transferred to a tube containing DPBS supplemented with 0.5% Bovine Serum Albumin and 0.05% Sodium Azide (FACS Buffer). Cells were centrifuged at 300 g for five minutes. The supernatant was discarded, and cells resuspended in FACS buffer were seeded in a 96-well U-bottom tissue culture plate at a density of 2×10⁵ cells per well in 50 μL. In a separate microplate, a 2× concentrated intermediate stock of each antibody was prepared. Antibodies were serially diluted 1-to-4 in FACS buffer. A total of 11 working dilutions ranging from 60 μg/mL to 0.000057 μg/mL were prepared. Fifty microlitres of each dilution were then transferred to the microplate containing human FcγRIIIa-CHO (variant V/V or variant F/F) cells. The cells were then incubated for 45 minutes at 4° C. […] After a 30-minute incubation on ice, the cells were washed twice with cold FACS Buffer, and the cells were analyzed by flow cytometry (BD LSR Fortessa Flow Cytometer). The data were analyzed using the FlowJo software by sequentially gating the FSC-A vs. SSC-A, and SSC-H vs. SSC-A. Mean fluorescence intensity (MFI) values for PE were calculated, and the data were plotted by GraphPad Prism software.

[5] = molecular target: T3, wild type full-length human TIGIT …; assay: flow cytometry on CHO cells expressing human TIGIT, PE anti-human IgG Fc detection
Protocol: The ability of anti-TIGIT antibodies to bind to wild type human TIGIT expressed on the surface of CHO cells was assessed. Briefly, CHO cells were transfected with a vector encoding wild type human TIGIT (human TIGIT-CHO), and clones stably expressing TIGIT were selected.
as §1, with “TIGIT-CHO” for “FcγRIIIa-CHO”, “cells” for “cells (variant V/V or variant F/F)”, “2×10⁵” left out, “prepared.” for “prepared. Fifty microlitres of each dilution were then transferred to the microplate containing human FcγRIIIa-CHO (variant V/V or variant F/F) cells. The cells were then incubated for 45 minutes at 4° C.”

T4 sequence (P08637 other isoform, or with tags, fused parts or gaps mutant limits assumed): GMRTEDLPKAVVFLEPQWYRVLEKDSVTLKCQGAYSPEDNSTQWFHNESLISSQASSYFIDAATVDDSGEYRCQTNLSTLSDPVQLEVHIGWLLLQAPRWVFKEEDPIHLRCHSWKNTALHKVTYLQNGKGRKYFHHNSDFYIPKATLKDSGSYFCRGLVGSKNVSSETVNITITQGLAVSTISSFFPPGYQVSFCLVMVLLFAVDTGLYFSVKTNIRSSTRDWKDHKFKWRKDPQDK
T1 sequence (A0A7N9I9V4 entry or part of it): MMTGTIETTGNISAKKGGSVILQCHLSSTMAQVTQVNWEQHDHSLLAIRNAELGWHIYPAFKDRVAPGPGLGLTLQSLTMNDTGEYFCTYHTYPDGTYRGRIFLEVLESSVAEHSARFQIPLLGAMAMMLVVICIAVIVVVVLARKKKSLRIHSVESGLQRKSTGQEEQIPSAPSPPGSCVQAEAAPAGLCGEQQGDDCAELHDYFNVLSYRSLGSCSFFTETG

B1: anti-TIGIT×CD96 multispecific molecule BA123 (bispecific antibody, human IgG1, kappa, lambda)
heavy 1: QVQLVQSGAEVKKPGASVKVSCKASGYTFTSYGISWVRQAPGQGLEWMGWISAYNANTNYAQKLQGRVTMTTDTSTSTAYMELRSLRSDDTAVYYCARSAGVLGGMDVWGRGTLVTVSSASTKGPSVFPLAPSSKSTSGGTAALGCLVKDYFPEPVTVSWNSGALTSGVHTFPAVLQSSGLYSLSSVVTVPSSSLGTQTYICNVNHKPSNTKVDKRVEPKSCDKTHTCPPCPAPELLGGPDVFLFPPKPKDTLMISRTPEVTCVVVDVSHEDPEVKFNWYVDGVEVHNAKTKPREEQYNSTYRVVSVLTVLHQDWLNGKEYKCKVSNKALPAPIEKTISKAKGQPREPQVYTLPPSREEMTKNQVSLSCAVKGFYPSDIAVEWESNGQPENNYKTTPPVLDSDGSFFLVSKLTVDKSRWQQGNVFSCSVMHEALHNHYTQKSLSLSPG
light 1: not shown
heavy 2: EVQLVQSGAEVKKPGSSVKVSCKASGYTFASYGISWVRQAPGQGLEWMGGITPFFNRVDVAEKFQGRVTITADKSTSTAYIELSSLRSEDTAVYYCARDLRRGGVGDAFDIWGRGTLVTVSSASTKGPSVFPLAPSSKSTSGGTAALGCLVKDYFPEPVTVSWNSGALTSGVHTFPAVLQSSGLYSLSSVVTVPSSSLGTQTYICNVNHKPSNTKVDKRVEPKSCDKTHTCPPCPAPELLGGPDVFLFPPKPKDTLMISRTPEVTCVVVDVSHEDPEVKFNWYVDGVEVHNAKTKPREEQYNSTYRVVSVLTVLHQDWLNGKEYKCKVSNKALPLPEEKTISKAKGQPREPQVYTLPPSREEMTKNQVSLWCLVKGFYPSDIAVEWESNGQPENNYKTTPPVLDSDGSFFLYSKLTVDKSRWQQGNVFSCSVMHEALHNHYTQKSLSLSPG
light 2: QSALTQPRSVSGSPGQSVTISCTGTSPDVGSHAYRSWYQQHPGKAPKLMIYEVSYRPSGVSNRFSGSKSGNTASLTISGLQAEDEADYYCSSYPPSSATVFGAGTKLTVLGQPKAAPSVTLFPPSSEELQANKATLVCLISDFYPGAVTVAWKADSSPVKAGVETTTPSKQSNNKYAASSYLSLTPEQWKSHRSYSCQVTHEGSTVEKTVAPTEC
notes: copies: 1 + 1 + 1 + 1
IC50 (read off the curve) [1]: ~2 µg/mL

B2: anti-TIGIT×CD96 multispecific molecule BA127 (bispecific antibody, human IgG1, kappa, lambda)
heavy 1: QVQLVQSGAEVKKPGASVKVSCKASGYTFTTYALHWVRQAPGQRLEWMGWINTGSGDTKYSQKFQGRVTITRDTSASTAYMELSSLRSEDTAVYYCARSLGVYYGMDVWGQGTLVTVSSASTKGPSVFPLAPSSKSTSGGTAALGCLVKDYFPEPVTVSWNSGALTSGVHTFPAVLQSSGLYSLSSVVTVPSSSLGTQTYICNVNHKPSNTKVDKRVEPKSCDKTHTCPPCPAPELLGGPDVFLFPPKPKDTLMISRTPEVTCVVVDVSHEDPEVKFNWYVDGVEVHNAKTKPREEQYNSTYRVVSVLTVLHQDWLNGKEYKCKVSNKALPAPIEKTISKAKGQPREPQVYTLPPSREEMTKNQVSLSCAVKGFYPSDIAVEWESNGQPENNYKTTPPVLDSDGSFFLVSKLTVDKSRWQQGNVFSCSVMHEALHNHYTQKSLSLSPG
light 1: not shown
heavy 2: EVQLVQSGAEVKKPGSSVKVSCKASGYTFASYGISWVRQAPGQGLEWMGGITPFFNRVDVAEKFQGRVTITADKSTSTAYIELSSLRSEDTAVYYCARDLRRGGVGDAFDIWGRGTLVTVSSASTKGPSVFPLAPSSKSTSGGTAALGCLVKDYFPEPVTVSWNSGALTSGVHTFPAVLQSSGLYSLSSVVTVPSSSLGTQTYICNVNHKPSNTKVDKRVEPKSCDKTHTCPPCPAPELLGGPDVFLFPPKPKDTLMISRTPEVTCVVVDVSHEDPEVKFNWYVDGVEVHNAKTKPREEQYNSTYRVVSVLTVLHQDWLNGKEYKCKVSNKALPLPEEKTISKAKGQPREPQVYTLPPSREEMTKNQVSLWCLVKGFYPSDIAVEWESNGQPENNYKTTPPVLDSDGSFFLYSKLTVDKSRWQQGNVFSCSVMHEALHNHYTQKSLSLSPG
light 2: QSALTQPRSVSGSPGQSVTISCTGTSPDVGSHAYRSWYQQHPGKAPKLMIYEVSYRPSGVSNRFSGSKSGNTASLTISGLQAEDEADYYCSSYPPSSATVFGAGTKLTVLGQPKAAPSVTLFPPSSEELQANKATLVCLISDFYPGAVTVAWKADSSPVKAGVETTTPSKQSNNKYAASSYLSLTPEQWKSHRSYSCQVTHEGSTVEKTVAPTEC
notes: Anti-CD96 arm = BA139, anti-TIGIT arm = BA150; copies: 1 + 1 + 1 + 1
Kd [2]: 0.584 nM | koff [2]: 0.000356 s⁻¹ | kon [2]: 610000 M⁻¹ s⁻¹

B3: anti-TIGIT monospecific antibody BA148 (antibody, human IgG1, lambda)
heavy: EVQLVQSGAEVKKPGSSVKVSCKASGYTFASYGISWVRQAPGQGLEWMGGITPFFNRVDVAEKFQGRVTITADKSTSTAYIELSSLRSEDTAVYYCARDLRRGGVGDAFDIWGRGTLVTVSSASTKGPSVFPLAPSSKSTSGGTAALGCLVKDYFPEPVTVSWNSGALTSGVHTFPAVLQSSGLYSLSSVVTVPSSSLGTQTYICNVNHKPSNTKVDKRVEPKSCDKTHTCPPCPAPELLGGPDVFLFPPKPKDTLMISRTPEVTCVVVDVSHEDPEVKFNWYVDGVEVHNAKTKPREEQYNSTYRVVSVLTVLHQDWLNGKEYKCKVSNKALPLPEEKTISKAKGQPREPQVYTLPPSREEMTKNQVSLTCLVKGFYPSDIAVEWESNGQPENNYKTTPPVLDSDGSFFLYSKLTVDKSRWQQGNVFSCSVMHEALHNHYTQKSLSLSPGK
light: QSALTQPRSVSGSPGQSVTISCTGTSPDVGSHAYRSWYQQHPGKAPKLMIYEVSYRPSGVSNRFSGSKSGNTASLTISGLQAEDEADYYCSSYPPSSATVFGAGTKLTVLGQPKAAPSVTLFPPSSEELQANKATLVCLISDFYPGAVTVAWKADSSPVKAGVETTTPSKQSNNKYAASSYLSLTPEQWKSHRSYSCQVTHEGSTVEKTVAPTEC
notes: IgG1; also called anti-TIGIT IgG1 antibody BA148
IC50 (read off the curve) [3]: ~0.01 µg/mL | Area under the curve (AUC) [4]: 50100 | EC50 (read off the curve) [5]: ~0.008 µg/mL
